Key:
[1] = biological target: SARS-Cov-2 Omicron变异株的生物素化RBD(South Africa/CERI-KRISP-K032195/2021) (SARS-CoV-2 Omicron variant, UniProt P0DTC2 319-541)
[2] = biological target: SARS-CoV-2 S蛋白 (Omicron变异株, 假病毒) (SARS-CoV-2 Omicron variant, UniProt P0DTC2 14-1273); experiment: cell-based or functional assay
[3] = biological target: SARS-CoV-2 S蛋白 (Delta变异株, 假病毒) (SARS-CoV-2 Delta variant, UniProt P0DTC2 14-1273); experiment: cell-based or functional assay

| Binder | Kd [1] [pM] | 假病毒中和能力(IC50) [2] [µg/mL] | 假病毒中和能力(IC50) [3] [µg/mL] |
| --- | --- | --- | --- |
| LHC11 (antibody, V domains shown) VH: EVQLVESGGGLIQPGGSLKLSCAATEIIVSRNYMTWVRQAPGKGLEWVSIIYPGGSSFYAESVKGRFTISRDEPKNTLFLQMNSLRVEDTAVYYCARGYGDYYFDFWGQGTLVTVSS VL: EIVLTQSPVTLSLSPGERATLSCRASQSVSSSYLAWYQQKPGQAPRLLIYGASSRATGIPDRFSGSGSGTDFTLTISRLEPEDFAVYYCQQWLTFGGGTKVEIKV | 960 | 0.024 | 0.027 |
| LHD2 (antibody, V domains shown) VH: QMQLVQSGPEVKKPGTSLKVSCKASGFAFTTSAVQWVRQARGQPLEWIGWIAVGSGKADYAQRFQERVTISRDMSTTTAYMELSSLSSEDTAVYFCAAPFCTRTTCLDGFDIWGQGTMVTVSS VL: EIVLTQSPVTLSLSPGERATLSCRAGQSVSRNYLGWYQQKPGQAPRLLIYAASSRATGIPDRFSGRGSGTDFTLTISRLEPEDFAVYYCQQYGTSPWTFGQGTKVEIKV | < 1 | 0.045 | 0.005 |
| LHD7 (antibody, V domains shown) VH: QMQLVQSGPEVKKPGTSVKVSCKASGFTFITAAVQWVRQARGQRLEWIGWIAVGSGKTDYAQKFQERVTITRDISTSTAYMEVKSLRSEDTALYYCAAPQCNRTTCLDGFDIWGQGTKVIVSS VL: EIVLTQSPVTLSLSPGERATLSCRASQSVSRSYLGWYQQKPGQAPRLLIYGASSRATGIPDRFRGSGSGTDFTLTISRLEPEDFAVYYCQQYGTSPWTFGQGTKVEIKV | < 1 | 0.025 | 0.008 |
| SWB8 (antibody, V domains shown) VH: EVQLVESGGGLVQPGGSLRLSCAASGFTIRSYEMNWVRQAPGKGLEWVSYISSSGTTIYYADSVKGRFTISRDTAKNSLYLQMNSLRAEDTAVYYCAREGDYPSAEYFHHWGQGTLVTVSS VL: DIVMTQSSVSLAVSLGERATINCKSSQSVLYSSTNRSYLAWYQQKPGQSPKLLIYWASTRESGVPDRFSGSGSGTDFTLTISSLQAEDVAVYYCQQYYSTRRTFGQGTKLEIKR | < 1 | 0.032 | 0.018 |
